These results are taken from US20050069911A1.

Where no end group is shown, it is not given here.

Experiment [1] deals with antibody C1. The experiment in a line: peptide competition ELISA. (In an ELISA, binding on a coated surface is turned into a signal by an enzyme label.)
Experiment [2] deals with antibody C1. The experiment in a line: peptide competition ELISA; free peptide against immobilized target peptide for C1.
For experiment [3], the target named is antibody P1. Briefly: peptide competition ELISA.
For experiment [4], the target named is antibody P1. Briefly: peptide competition ELISA; free peptide against immobilized target peptide for P1.
For experiment [5], the target named is antibody C1. Briefly: peptide competition ELISA; free peptide competes with immobilized target peptide for C1.
In experiment [6] the target is antibody C1. The experiment in a line: peptide competition ELISA (Example 5): the free peptide, in rising concentration, competes with the plate-bound target peptide for antibody C1; HRP-labelled secondary antibody, absorbance at 450.
Experiment [7] has as its target antibody P1. The experiment in a line: peptide competition ELISA; free peptide competes with immobilized target peptide for P1.
Experiment [8] has as its target antibody P1. Briefly: peptide competition ELISA (Example 5): the free peptide, in rising concentration, competes with the plate-bound target peptide for antibody P1; HRP-labelled secondary antibody, absorbance at 450.

B1: nearest-neighbor 8-mer peptide VEVNGEVF (peptide)
peptide: VEVNGEVF
For B1, the fold higher concentration without competition, against the antigen PET YEVQGEVF in experiment [1] was > 1000 fold. Besides, the concentration for half-maximal inhibition (IC50) (in general, the midpoint of a concentration-inhibition curve) in experiment [2] is > 1 mM.

B2: nearest-neighbor 8-mer peptide DPTQLTDA (peptide)
peptide: DPTQLTDA
For the molecule B2, the fold higher concentration without competition, against the antigen PET EPAELTDA in experiment [3] was 25000 fold. For the same molecule, the IC50 in experiment [4] is > 1 mM.

B3: CRP-derived 8-mer PET peptide YEVQGEVF (peptide)
peptide: YEVQGEVF
B3 displayed an IC50 in experiment [5] of 1000 nM. The molecule also registered an IC50 (read off the curve) in experiment [6] of 0.9 µM.

B4: nearest-neighbor 8-mer peptide EPVELTSA (peptide)
peptide: EPVELTSA
In turn, B4 had a fold higher concentration without competition, against the antigen PET EPAELTDA in experiment [3] of 25000 fold. The IC50 in experiment [4] is > 1 mM.

B5: nearest-neighbor 8-mer peptide YEVLGEEF (peptide)
peptide: YEVLGEEF
In the case of B5, in experiment [1], the fold higher concentration without competition, against the antigen PET YEVQGEVF was > 1000 fold. The IC50 in experiment [2] was > 1 mM.

B6: PSA-derived 8-mer PET peptide EPAELTDA (peptide)
peptide: EPAELTDA
modifications: not fully specified
In turn, B6 showed a concentration for half-maximal inhibition (IC50) in experiment [7] of 40 nM. In addition, the IC50 (read off the curve) in experiment [8] was found to be 90 nM.
